From US12029792B2, “Stereocomplexes for the delivery of anti-cancer agents” (priority 2018, dated 2024)

Columns and labels:
[1] = In vitro release of DM1 by dialysis with or without GSH; type: physicochemical
Experimental: The release of poly-DM1 was performed by dialysis in phosphate buffered saline (pH 7.4, containing 0.2% w/v polysorbate 80) with or without 10 mM glutathione (GSH). Briefly, 1 mL of the poly-DM1 formulation with the concentration of DM1 adjusted to 0.5 mg/mL by PBS was placed in a dialysis bag (MWCO=3.5k Da), which was sealed. After being immediately immersed in 10 mL release medium, the sample was incubated at 37° C. At scheduled time intervals (4, 8, 24, 48 h), 1 mL of the external release medium was taken out and replenished with an equal volume of fresh medium. All released samples were freeze-dried and the amount of released DM1 was determined using HPLC measurements as described previously.
Release of DM1 from the stereocomplex over time, with and without glutathione (GSH) was measured at pH 7.4; results are presented in FIG. 16B. DM1 is released from the isolated prodrug most quickly in the presence of GSH (squares) and more slowly from the stereocomplex (circles). In the absence of glutathione, DM1 is essentially not released from either the isolated prodrug or the complex (triangles and inverted triangles at 0% cumulative release). Thus, conjugation of DM1 with a redox-sensitive disulfide linker prohibits premature release of DM1 without GSH.

[2] = Tolerance of formulations in mice without tumors; type: in vivo; settings: healthy mice, tail vein days 1, 8, 15, 22
Experimental: Healthy mice (n=5 for each treatment group) were injected on days 1, 8, 15, and 22 of a 28-day trial in the tail vein with either the DM1-containing prodrug at 4 mg/kg, the DM1-containing prodrug plus mPEG-PLLA at 4 mg/kg, or the stereocomplex with 4 mg/kg DM1 and 27 mg/kg DTX per injection and body weight was monitored to determine tolerance of the treatments. […] Healthy mice (n=5 for each treatment group) were injected with complex at 3.6 mg/kg DM1 once/week for total three injections, at 5 mg/kg DM1 once/two weeks for total two injections and at 7 mg/kg DM1 only once, respectively.

[3] = system: MiA PaCa-2 pancreatic tumor; experiment: Subcutaneous MiA PaCa-2 pancreatic tumor model; type: in vivo, mice; settings: four injections for D-DM1, two injections for the stereocomplex
Experimental: In vivo antitumor efficacy of the complex was assessed in a subcutaneous MiA PaCa-2 pancreatic tumor model. MiA PaCa-2 cell suspensions were injected subcutaneously on the backs of mice to establish the tumor model. When tumor volume reached approximately 140 mm^3, groups of tumor bearing mice (n=5) were injected through the tail vein on day 1 and day 14 of an approximately 40-day trial.
(§1) Antitumor efficacy and toxicity for the stereocomplex and DM1-containing prodrug were assessed in a subcutaneous MiaPaCa-2 pancreatic tumor model. MiA PaCa-2 cell suspensions were injected subcutaneously on the backs of mice to establish the tumor model. When tumor volume reached approximately 140 mm^3, groups of tumor-bearing mice (n=5) were injected with treatment through the tail vein.

CNE nasopharyngeal tumor = experiment: Subcutaneous CNE nasopharyngeal tumor model; type: in vivo, mice; settings: four injections once per week; 4 mg/kg DM1 (complex also 26 mg/kg DTX)
Experimental: as §1, with “CNE nasopharyngeal” for “MiaPaCa-2 pancreatic”, “model when the treatment is delivered via intravenous injection. Cell” for “model. MiA PaCa-2 cell”, “100” for “140”, “tumor bearing” for “tumor-bearing”, “the complex” for “treatment”

Substance: mPEG-PDLA-SS-DM1 [D-DM1]
- cumulative release of DM1 ([1]; pH 7.4, in the absence of glutathione): 0%
- Release of DM1 over time ([1]; pH 7.4, in the presence of GSH (10 mM)): most quickly
- tail swelling and ulceration ([2]; 4 mg/kg DM1): two mice showed tail swelling and ulceration on days 8-14
- Body weight ([2]; 4 mg/kg DM1 (stereocomplex also 27 mg/kg DTX), 28-day trial): increased slightly
- antitumor effect (tumor volume) [3]: almost the same antitumor effect
- toxicity: mouse death and body weight [3]: induced mouse death and obvious body weight decrease
- tumor volume (CNE nasopharyngeal tumor): tumor volume increased significantly
